The target in experiment [1] is T1, recombinant purified human RGM A (R&D Systems Cat# 2459-RM) (human) (UniProt Q96B86).
T1 sequence: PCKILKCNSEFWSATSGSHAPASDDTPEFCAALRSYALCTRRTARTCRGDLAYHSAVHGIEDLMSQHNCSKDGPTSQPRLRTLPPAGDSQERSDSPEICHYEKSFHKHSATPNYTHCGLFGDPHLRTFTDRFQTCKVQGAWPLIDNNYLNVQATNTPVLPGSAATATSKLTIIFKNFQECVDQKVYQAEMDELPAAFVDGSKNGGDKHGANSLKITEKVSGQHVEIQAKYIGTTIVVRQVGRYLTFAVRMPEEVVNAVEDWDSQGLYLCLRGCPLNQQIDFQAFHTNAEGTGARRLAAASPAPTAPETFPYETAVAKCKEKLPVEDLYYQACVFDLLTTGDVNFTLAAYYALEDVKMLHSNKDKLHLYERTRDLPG
Description: competition ELISA on coated hRGMA; competitor biotinylated chimeric 5F9. Background: An ELISA detects its analyte on a solid surface through an enzyme-linked reagent.

Experiment [2] addresses T1, recombinant purified human RGM A (R&D Systems Cat# 2459-RM) (human). Description: SPR (Biacore 3000), antibody captured by anti-human IgG Fc, hRGMA in solution, 25 °C.

B1: h5F9.21 (antibody, human IgG1, V domains shown)
VH: EVQLVESGGGVVQPGRSLRLSCAASGFTFSNYGMNWIRQAPGKGLEWIGMIYYDSSEKHYADSVKGRFTISRDNSKNTLYLQMNSLRAEDTAVYYCAKGTTPDYWGQGTMVTVSS
VL: DVVLTQSPLSLPVTLGQPASISCRSSQSLEYSDGYTFLEWFLQKPGQSPQLLIYEVSNRFSGVPDRFSGSGSGTDFTLKISRVEAEDVGVYYCFQATHDPLTFGQGTKLEIKR
The term IC50 denotes the concentration that gives 50% inhibition. For orientation: Kd means the concentration at which binding is half-saturated. Usually koff stands for a measure of how fast the partners let go of each other. As usually defined, the kon is the rate constant with which the complex forms. As for B1, the IC50 in experiment [1] was found to be 0.6 µg/mL. Further, in experiment [2], the Kd was 7.59 nM, the koff was found to be 0.00269 s⁻¹ and the kon turned out to be 355000 M⁻¹ s⁻¹.

B2: chimeric 5F9 (antibody, V domains shown)
VH: EVQLVESGGGLVQPGSSLKLSCVASGFTFSNYGMNWIRQAPKKGLEWIGMIYYDSSEKHYADSVKGRFTISRDNSKNTLYLEMNSLRSEDTAIYYCAKGTTPDYWGQGVMVTVSS
VL: DVVLTQTPVSLSVTLGDQASMSCRSSQSLEYSDGYTFLEWFLQKPGQSPQLLIYEVSNRFSGVPDRFIGSGSGTDFTLKISRVEPEDLGVYYCFQATHDPLTFGSGTKLEIKR
Regarding B2, in experiment [2], the Kd was determined as 3.09 nM, the koff came to 0.00236 s⁻¹ and the kon came to 765000 M⁻¹ s⁻¹.

B3: h5F9.24 (antibody, human IgG1, V domains shown)
VH: EVQLVESGGGLVQPGGSLRLSCAASGFTFSNYGMNWIRQAPGKGLEWIGMIYYDSSEKHYADSVKGRFTISRDNSKNTLYLQMNSLRAEDTAVYYCAKGTTPDYWGQGTMVTVSS
VL: DVVLTQSPLSLPVTLGQPASISCRSSQSLEYSDGYTFLEWFQQRPGQSPRRLIYEVSNRFSGVPDRFSGSGSGTDFTLKISRVEAEDVGVYYCFQATHDPLTFGQGTKLEIKR
For B3, the IC50 in experiment [1] worked out at 1.32 µg/mL.

B4: h5F9.25 (antibody, human IgG1, V domains shown)
VH: EVQLVESGGGLVQPGGSLRLSCAASGFTFSNYGMNWIRQAPGKGLEWIGMIYYDSSEKHYADSVKGRFTISRDNSKNTLYLQMNSLRAEDTAVYYCAKGTTPDYWGQGTMVTVSS
VL: DVVLTQSPLSLPVTLGQPASISCRSSQSLEYSDGYTFLEWFLQKPGQSPQLLIYEVSNRFSGVPDRFSGSGSGTDFTLKISRVEAEDVGVYYCFQATHDPLTFGQGTKLEIKR
Regarding B4, the IC50 in experiment [1] came to 0.66 µg/mL. In experiment [2], the Kd was 5.78 nM, the koff is 0.00329 s⁻¹ and the kon is 570000 M⁻¹ s⁻¹.

B5: h5F9.23 (antibody, human IgG1, V domains shown)
VH: EVQLVESGGGLVQPGGSLRLSCAASGFTFSNYGMNWIRQAPGKGLEWIGMIYYDSSEKHYADSVKGRFTISRDNSKNTLYLQMNSLRAEDTAVYYCAKGTTPDYWGQGTMVTVSS
VL: DVVLTQSPLSLPVTLGQPASISCRSSQSLEYSDGYTFLEWFQQRPGQSPRLLIYEVSNRFSGVPDRFSGSGSGTDFTLKISRVEAEDVGVYYCFQATHDPLTFGQGTKLEIKR
In the case of B5, the IC50 in experiment [1] was determined as 0.55 µg/mL. In experiment [2], the Kd was 4.37 nM, the off-rate (koff) came out at 0.00221 s⁻¹ and the kon amounted to 507000 M⁻¹ s⁻¹.

The record behind these values is US20100028340A1.
